These results are taken from article PMC5263247, “Lipid Signaling via Pkh1/2 Regulates Fungal CO2 Sensing through the Kinase Sch9” (mBio, 2017).

For the assay, the target named is T1, ScSch9-His (S. cerevisiae, UniProt P11792 1-824).
T1 construct: Sch9 kinase of S. cerevisiae; SCH9 synthesized with a C-terminal 6xHis tag and cloned into the E. coli expression vector p41; also called recombinant ScSch9-His; source: E. coli BL21(DE3), purified (IMAC, Ni-NTA Sepharose); not shown: 6xHis, C-terminal, kept
T1 sequence (looked up): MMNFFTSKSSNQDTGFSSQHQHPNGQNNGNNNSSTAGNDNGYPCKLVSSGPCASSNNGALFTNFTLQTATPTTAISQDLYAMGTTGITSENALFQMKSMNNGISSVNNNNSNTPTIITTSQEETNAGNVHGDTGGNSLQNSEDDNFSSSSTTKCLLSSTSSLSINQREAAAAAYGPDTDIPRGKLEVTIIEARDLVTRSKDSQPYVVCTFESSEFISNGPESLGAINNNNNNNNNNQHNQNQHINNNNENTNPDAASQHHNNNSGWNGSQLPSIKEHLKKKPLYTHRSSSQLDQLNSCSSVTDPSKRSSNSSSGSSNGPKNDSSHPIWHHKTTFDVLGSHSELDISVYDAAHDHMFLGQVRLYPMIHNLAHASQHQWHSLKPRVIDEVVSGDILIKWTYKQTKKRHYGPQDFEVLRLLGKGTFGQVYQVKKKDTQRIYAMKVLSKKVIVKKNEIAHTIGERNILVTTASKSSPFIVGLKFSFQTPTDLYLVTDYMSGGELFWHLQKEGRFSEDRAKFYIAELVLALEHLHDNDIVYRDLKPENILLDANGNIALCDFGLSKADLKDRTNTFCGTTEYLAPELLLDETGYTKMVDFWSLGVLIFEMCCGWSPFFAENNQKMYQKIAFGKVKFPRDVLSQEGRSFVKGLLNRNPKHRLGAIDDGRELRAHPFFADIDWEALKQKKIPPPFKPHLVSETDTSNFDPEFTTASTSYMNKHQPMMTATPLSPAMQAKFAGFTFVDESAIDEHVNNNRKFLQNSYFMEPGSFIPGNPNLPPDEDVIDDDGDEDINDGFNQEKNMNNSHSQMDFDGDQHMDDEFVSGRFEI
Kind of assay: co-IP; endogenous ScCst6 precipitated from S. cerevisiae WT lysate with rabbit anti-Cst6 antibody, bound to protein-G Sepharose beads, washed (IP buffer plus 500 mM NaCl), then incubated with 20 µg recombinant ScSch9-His for 3 h at 4°C; extensive washing; Western blot (anti-ScCst6, anti-6xHis). As to conditions: both partners purified. In general terms: Immunoblotting shows a protein as a band on a membrane.

B1: ScCst6 (endogenous) (natural protein, UniProt P40535 1-587, looked up)
chain: MFTGQEYHSVDSNSNKQKDNNKRGIDDTSKILNNKIPHSVSDTSAAATTTSTMNNSALSRSLDPTDINYSTNMAGVVDQIHDYTTSNRNSLTPQYSIAAGNVNSHDRVVKPSANSNYQQAAYLRQQQQQDQRQQSPSMKTEEESQLYGDILMNSGVVQDMHQNLATHTNLSQLSSTRKSAPNDSTTAPTNASNIANTASVNKQMYFMNMNMNNNPHALNDPSILETLSPFFQPFGVDVAHLPMTNPPIFQSSLPGCDEPIRRRRISISNGQISQLGEDIETLENLHNTQPPPMPNFHNYNGLSQTRNVSNKPVFNQAVPVSSIPQYNAKKVINPTKDSALGDQSVIYSKSQQRNFVNAPSKNTPAESISDLEGMTTFAPTTGGENRGKSALRESHSNPSFTPKSQGSHLNLAANTQGNPIPGTTAWKRARLLERNRIAASKCRQRKKVAQLQLQKEFNEIKDENRILLKKLNYYEKLISKFKKFSKIHLREHEKLNKDSDNNVNGTNSSNKNESMTVDSLKIIEELLMIDSDVTEVDKDTGKIIAIKHEPYSQRFGSDTDDDDIDLKPVEGGKDPDNQSLPNSEKIK
notes: Transcription factor Cst6 (ATF/CREB family) of S. cerevisiae, endogenous protein of the wild type (BY4741); also called endogenous ScCst6; source: endogenous, S. cerevisiae WT lysate, immunopurified with anti-Cst6 antibody on protein-G Sepharose beads
For B1, the binding result is given as “binds”.
